Data: paper PMC8110955, “A synthetic RNA editing factor edits its target site in chloroplasts and bacteria”

T1: MORF9 (UniProt Q9LPZ1 75-196, C85S;C187S)
T1 sequence: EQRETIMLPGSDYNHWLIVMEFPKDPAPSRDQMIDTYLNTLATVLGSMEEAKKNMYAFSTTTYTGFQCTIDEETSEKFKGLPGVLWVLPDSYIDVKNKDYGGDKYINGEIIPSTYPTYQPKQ

B1: rpoA_REMSA (rpoA-78691) (ssRNA)
RNA: AUGUAUUACACGUGCAAAAUCUGAGA
B2: clpP1_REMSA (clpP1-69942) (ssRNA)
RNA: CAGCAACAGAAGCCCAAGCUCAUGGA

Biological target: T1, MORF9
Test: EMSA; MORF9 alone, up to highest concentration; REMSA: 1 nM RNA, 2x buffer is 85 mM Tris, 165 mM HEPES, 200 mM NaCl, 12.5 mM DTT, 0.25 mM EDTA, 1.25 mg/mL heparin, 0.1 mg/mL BSA; 30 min at ambient temperature; 5% polyacrylamide gel; pH not stated
Conditions: protein: recombinant; tags: N-terminal His-TEV tag cleaved off; label: 5'-Cy5; single strand

Binder	binding result
B1	no binding
B2	no binding
